Assay results taken from the supplement of paper PMC7125110.
± gives the standard error. This sample holds only a part of the variants without activity.

B1: glmS ribozyme (parent)
chain: AUAAAAGCGCCAGAACUACAGAAAUGUAGUUGACGAGGAGGAGGUUUAUCGAAUUUUCGGCGGAUGCCUCCAAA

Tests used:
Conditions in all cases: with glucosamine-6-phosphate
glucosamine-6-phosphate [1] = variants of: B1; assay: self-cleavage kobs at 40 uM GlcN6P; higher = faster cleavage; RNA array
Summary of the method: (§1)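 Barcoded ribozyme variants, transcribed in situ by E. coli RNA polymerase on sequenced MiSeq chips, were followed via a hybridised Cy3 probe at 37 °C. Glucosamine-6-phosphate ranged from 40 μM to 10 mM in HEPES/KCl/Mg(OAc)2 buffer. kobs came from decay fits to per-tile medians, and kcat and KM from weighted Michaelis–Menten fits.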

glucosamine-6-phosphate [2] = variants of: B1; assay: self-cleavage kobs at 160 uM GlcN6P; higher = faster cleavage; RNA array
Summary of the method: as §1

glucosamine-6-phosphate [3] = variants of: B1; assay: self-cleavage kobs at 640 uM GlcN6P; higher = faster cleavage; RNA array
Summary of the method: as §1

glucosamine-6-phosphate [4] = variants of: B1; assay: self-cleavage kobs at 10000 uM GlcN6P; higher = faster cleavage; RNA array
Summary of the method: as §1

glucosamine-6-phosphate [5] = variants of: B1; assay: self-cleavage kobs at 2500 uM GlcN6P; higher = faster cleavage; RNA array
Summary of the method: as §1

Row | Variant | self-cleavage kobs at 40 uM GlcN6P (glucosamine-6-phosphate [1]) [s⁻¹] | self-cleavage kobs at 160 uM GlcN6P (glucosamine-6-phosphate [2]) [s⁻¹] | self-cleavage kobs at 640 uM GlcN6P (glucosamine-6-phosphate [3]) [s⁻¹] | self-cleavage kobs at 10000 uM GlcN6P (glucosamine-6-phosphate [4]) [s⁻¹] | self-cleavage kobs at 2500 uM GlcN6P (glucosamine-6-phosphate [5]) [s⁻¹]
1 | A6G G43U C67U | < 1e-05 | < 1e-05 | < 1e-05 | < 1e-05 | 
2 | G44C U45A C71U | < 1e-05 |  |  |  | 
3 | G7A U30G U45G C67G C68A | 0.000126 ± 4e-05 |  |  | 0.00014 ± 3.6e-05 | 
4 | G35C U45G | < 1e-05 | < 1e-05 |  | < 1e-05 | < 1e-05
5 | A6U G62C | < 1e-05 |  | < 1e-05 |  | < 1e-05
6 | A12G A36U A42U G51U A53C | < 1e-05 |  |  |  | 
7 | U31A G63A | < 1e-05 |  |  | < 1e-05 | 
8 | G62C | < 1e-05 | < 1e-05 | < 1e-05 | < 1e-05 | < 1e-05
9 | A52G U57A G66U | < 1e-05 |  |  | 3.15e-05 ± 1.6e-05 | 
10 | G9U G62C | < 1e-05 | < 1e-05 |  | < 1e-05 | 
11 | A12C A36C A48G C61U C70A | < 1e-05 |  |  |  | 
12 | A52G U56C | < 1e-05 |  | 4.15e-05 ± 1.2e-05 | 0.000259 ± 4.9e-05 | 7.09e-05 ± 1.3e-05
13 | G9C U30A U46C U56A | < 1e-05 |  |  | < 1e-05 | 
14 | G37A U56G | 5.06e-05 ± 1.6e-05 |  |  | 0.00174 ± 0.00028 | 
15 | G38U G41C C68G | < 1e-05 |  |  | < 1e-05 | 
16 | C10G G59C | < 1e-05 |  | < 1e-05 |  | 
17 | C34U A52G C68G | 0.000541 ± 0.00018 |  |  | 0.000197 ± 6e-05 | 
18 | G40U G43U | < 1e-05 | < 1e-05 | < 1e-05 | < 1e-05 | 
19 | G9A C70U | < 1e-05 |  | < 1e-05 | 2.28e-05 ± 1e-05 | 
20 | C10U G29U C34A | < 1e-05 |  |  | < 1e-05 | < 1e-05
21 | A48C G51U C67U | < 1e-05 |  |  | < 1e-05 | 
22 | G35U A48C G60C | < 1e-05 |  |  | < 1e-05 | < 1e-05
23 | G29C G32U C34A C50G U65G C68G | 8.78e-05 ± 3.1e-05 | 0.000304 ± 5.8e-05 | 8.65e-05 ± 2.9e-05 | 4.42e-05 ± 1.7e-05 | 0.000304 ± 7.2e-05
24 | C16U G32C G40U C58U | < 1e-05 |  |  |  | 
25 | C34G G37U A39C A53U | < 1e-05 |  |  |  | 
